According to patent US11969458B2, “Formula of neuregulin preparation” (Zensun (Shanghai) Science & Technology, Co., Ltd., priority 2014, dated 2024):

Columns and labels:
[1] = Narrow pH stability study of rhNRG-1 (pH 2.3 to 4.3) by RP-HPLC with Arrhenius shelf life prediction; assay type: physicochemical
Procedure: In a plastic tube, add the API and DI-water. Mix into a solution containing 0.25 mg/mL rhNRG-1, 4 mM phosphate (from the API) and 0.1M NaCl (from the API). Adjust pH down using a diluted HCl. Once the first target is reached, transfer about 8 mL into a separate plastic tube and continue the titration to hit the next target and collect about 8 mL at each target (i.e. 4.29, 3.90, 3.78, 3.47, 3.36, 3.17, 3.02, 2.85, 2.58, 2.37 and 2.33). For each pH, transfer into glass vials for total 5 vials each level. Place one vial each at 2-8, 25, 40, 50 and 60° C. […]
For 40° C., remove 200 μL and test by HPLC after 0, 5.7, 7 and 11 days
Construct a narrow range pH-rate (stability) profile at each temperature.
Derive an Arrhenius equation and predict shelf life at 5° C.
Using the 40, 50 and 60° C. data for each pH (2.3 to 3.9), an Arrhenius plot was used to predict the shelf life at 5° C. for each pH level. The T90 values calculated from the Arrhenius plots are provided as follows (Table 11): […]

[2] = Forced degradation study of rhNRG-1 (oxidation with H2O2), RP-HPLC; assay type: physicochemical; details: for rhNRG-1 conc.: 0.06% H2O2, RT
Procedure: The API solution was forced to degrade as follow (Table 12):
The samples collected at time point was analyzed by the RP-HPLC.

[3] = pH 2.37, predicted shelf life at 5° C. from Arrhenius plot
[4] = pH 2.58, predicted shelf life at 5° C. from Arrhenius plot
[5] = pH 3.02, predicted shelf life at 5° C. from Arrhenius plot
[6] = pH 3.36, predicted shelf life at 5° C. from Arrhenius plot
[7] = pH 3.90, predicted shelf life at 5° C. from Arrhenius plot

B1: rhNRG-1: proteins or peptides which consist of amino acid sequence of SEQ ID NO: 2 (protein, listed as Homo sapiens)
chain: SHLVKCAEKEKTFCVNGGECFMVKDLSNPSRYLCKCPNEFTGDRCQNYVMASFYKAEELYQ
pH of the best stability, narrow pH study ([1]; pH 2.3 to 4.3): 3.4 (±0.2)
Initial Conc ([1]; pH 2.37 (diluted HCl)): 0.241 mg/mL
% over initial conc. ([1]; pH 2.37, 40° C., 5.7 days): 90%
% over initial conc. ([1]; pH 2.37, 40° C., 7 days): 83%
% over initial conc. ([1]; pH 2.37, 40° C., 11 days): 77%
% over initial conc. ([1]; pH 2.37, 50° C., 5.7 days): 82%
% over initial conc. ([1]; pH 2.37, 50° C., 7 days): 53%
% over initial conc. ([1]; pH 2.37, 50° C., 11 days): 36%
% over initial conc. ([1]; pH 2.37, 60° C., 3.7 days): 55%
% over initial conc. ([1]; pH 2.37, 60° C., 4.7 days): 57%
% over initial conc. ([1]; pH 2.37, 60° C., 5.7 days): 43%
T90 [1, 3]: 166 days
T90 (months) [1, 3]: 6 months
Initial Conc ([1]; pH 2.58 (diluted HCl)): 0.238 mg/mL
% over initial conc. ([1]; pH 2.58, 40° C., 5.7 days): 96%
% over initial conc. ([1]; pH 2.58, 40° C., 7 days): 89%
% over initial conc. ([1]; pH 2.58, 40° C., 11 days): 83%
% over initial conc. ([1]; pH 2.58, 50° C., 5.7 days): 90%
% over initial conc. ([1]; pH 2.58, 50° C., 7 days): 54%
% over initial conc. ([1]; pH 2.58, 50° C., 11 days): 35%
% over initial conc. ([1]; pH 2.58, 60° C., 3.7 days): 62%
% over initial conc. ([1]; pH 2.58, 60° C., 4.7 days): 60%
% over initial conc. ([1]; pH 2.58, 60° C., 5.7 days): 55%
T90 [1, 4]: 317 days
T90 (months) [1, 4]: 11 months
Initial Conc ([1]; pH 3.02 (diluted HCl)): 0.236 mg/mL
% over initial conc. ([1]; pH 3.02, 40° C., 5.7 days): 99%
% over initial conc. ([1]; pH 3.02, 40° C., 7 days): 94%
% over initial conc. ([1]; pH 3.02, 40° C., 11 days): 88%
% over initial conc. ([1]; pH 3.02, 50° C., 5.7 days): 95%
% over initial conc. ([1]; pH 3.02, 50° C., 7 days): 79%
% over initial conc. ([1]; pH 3.02, 50° C., 11 days): 70%
% over initial conc. ([1]; pH 3.02, 60° C., 3.7 days): 70%
% over initial conc. ([1]; pH 3.02, 60° C., 4.7 days): 68%
% over initial conc. ([1]; pH 3.02, 60° C., 5.7 days): 0%
T90 [1, 5]: 612 days
T90 (months) [1, 5]: 20 months
Initial Conc ([1]; pH 3.36 (diluted HCl)): 0.230 mg/mL
% over initial conc. ([1]; pH 3.36, 40° C., 5.7 days): 101%
% over initial conc. ([1]; pH 3.36, 40° C., 7 days): 97%
% over initial conc. ([1]; pH 3.36, 40° C., 11 days): 90%
% over initial conc. ([1]; pH 3.36, 50° C., 5.7 days): 99%
% over initial conc. ([1]; pH 3.36, 50° C., 7 days): 85%
% over initial conc. ([1]; pH 3.36, 50° C., 11 days): 76%
% over initial conc. ([1]; pH 3.36, 60° C., 3.7 days): 77%
% over initial conc. ([1]; pH 3.36, 60° C., 4.7 days): 69%
% over initial conc. ([1]; pH 3.36, 60° C., 5.7 days): 63%
T90 [1, 6]: 1092 days
T90 (months) [1, 6]: 36 months
Initial Conc ([1]; pH 3.90 (diluted HCl)): 0.230 mg/mL
% over initial conc. ([1]; pH 3.90, 40° C., 5.7 days): 101%
% over initial conc. ([1]; pH 3.90, 40° C., 7 days): 96%
% over initial conc. ([1]; pH 3.90, 40° C., 11 days): 88%
% over initial conc. ([1]; pH 3.90, 50° C., 5.7 days): 102%
% over initial conc. ([1]; pH 3.90, 50° C., 7 days): 88%
% over initial conc. ([1]; pH 3.90, 50° C., 11 days): 79%
% over initial conc. ([1]; pH 3.90, 60° C., 3.7 days): 83%
% over initial conc. ([1]; pH 3.90, 60° C., 4.7 days): 81%
% over initial conc. ([1]; pH 3.90, 60° C., 5.7 days): 73%
T90 [1, 7]: 239 days
T90 (months) [1, 7]: 8 months
Initial Conc ([1]; pH 4.29 (diluted HCl)): 0.235 mg/mL
% over initial conc. ([1]; pH 4.29, 50° C., 5.7 days): 100%
% over initial conc. ([1]; pH 4.29, 50° C., 11 days): 78%
% over initial conc. ([1]; pH 4.29, 60° C., 3.7 days): 80%
% over initial conc. ([1]; pH 4.29, 60° C., 5.7 days): 72%
sensitivity to oxidation ([2]; H2O2 exposure): very sensitive to peroxide and prone to oxidation
rhNRG-1 conc. ([2]; Oxidation exposure 0.3 hours): 0.24 mg/mL
rhNRG-1 conc. ([2]; Oxidation exposure 2.4 hours): 0.15 mg/mL
rhNRG-1 conc. ([2]; Oxidation exposure 4.5 hours): 0.10 mg/mL
rhNRG-1 conc. ([2]; Oxidation exposure 7.1 hours): 0.07 mg/mL
